Test results published in publication PMC3712923.

Key:
[1] = target: β-lactamase-SBP fusion; test: SPR; BIAcoreX; purified β-lactamase-SBP amine-coupled to a CM5 chip, streptavidin variant as analyte; blank flow cell as reference
[2] = target: wild-type streptavidin (UniProt P22629); test: affinity column chromatography; streptavidin variant coupled to Affi-gel 15; culture supernatant with β-lactamase-SBP loaded at 20% of the theoretical column binding capacity (non-overloaded); PBS wash, elution with 5 mM d-biotin
[3] = target: SAVSBPM18 engineered streptavidin (S27A, G48T) (UniProt P22629); test: as above
[4] = target: wild-type streptavidin (UniProt P22629); test: affinity column chromatography; streptavidin variant coupled to Affi-gel 15; culture supernatant with β-lactamase-SBP loaded at 142-150% of the theoretical column binding capacity (overloaded); leakage during washing; pure wash fractions pooled with the elution fractions
[5] = target: SAVSBPM18 engineered streptavidin (S27A, G48T) (UniProt P22629); test: as above
[6] = target: SAVSBPM18 engineered streptavidin (S27A, G48T) (UniProt P22629); test: as above; remark: listed apart in the source

Sequence of wild-type streptavidin (from UniProt P22629 25-183) (natural protein) (P22629 25-183): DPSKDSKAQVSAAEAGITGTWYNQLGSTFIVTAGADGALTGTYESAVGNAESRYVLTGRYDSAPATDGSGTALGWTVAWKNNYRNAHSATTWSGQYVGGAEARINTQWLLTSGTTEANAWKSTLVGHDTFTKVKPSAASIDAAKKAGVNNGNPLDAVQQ
Sequence of SAVSBPM18 engineered streptavidin (S27A, G48T) (P22629 25-183 S51A/G72T): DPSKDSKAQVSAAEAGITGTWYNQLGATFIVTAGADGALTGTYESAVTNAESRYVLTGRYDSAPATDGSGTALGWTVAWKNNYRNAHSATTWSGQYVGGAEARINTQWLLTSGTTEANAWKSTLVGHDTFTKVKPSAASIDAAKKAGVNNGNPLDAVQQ
Sequence of wild-type streptavidin (UniProt P22629) (P22629 25-183): as the sequence (P22629 25-183) above

Substance	Kd [1]	koff [1]	kon [1]	percent recovery [2]	percent recovery [3]	percent recovery [4]	percent recovery [5]	percent recovery [6]
SAVSBPM18 engineered streptavidin (S27A, G48T) (from UniProt P22629 25-183) (designed binder)	15.7 nM	0.000711 s⁻¹	45300 M⁻¹ s⁻¹	–	–	–	–	–
β-lactamase-SBP fusion	–	–	–	90%	91%	51%	58%	51%
wild-type streptavidin (from UniProt P22629 25-183) (natural protein)	8.59 nM	0.000816 s⁻¹	95000 M⁻¹ s⁻¹	–	–	–	–	–
